Reference: article PMC7501880

Molecular target: DIP-α^Nectin1 chimera (human | Drosophila) (UniProt Q15223)
Experiment: SPR

Kd: < 5 mM
Substance: Dpr10^Nectin3 chimera (from UniProt Q9NQS3 58-167)
